Measured values reported in publication PMC4777393, “Structural Basis for Recognition of Human Enterovirus 71 by a Bivalent Broadly Neutralizing Monoclonal Antibody” (PLoS Pathogens, 2016).

Legend:
[1] = target: EV71 procapsid (E-particle), inactivated; experiment: ELISA; details: read off a plot
[2] = target: EV71 virus-like particle (VLP); experiment: ELISA; details: read off a plot
[3] = target: SP70 peptide (amino acid residues 208 to 222 of EV71 VP1) (UniProt Q66478); experiment: ELISA; details: read off a plot
[4] = target: EV71 mature virion (F-particle), inactivated; experiment: ELISA; details: read off a plot
SCARB2-Fc = SCARB2-Fc (UniProt Q14108); experiment: pull-down with SCARB2-Fc and anti-human Fc IgG conjugated beads, quantified by qRT-PCR; details: 4°C; parent: est. 100; read off a plot
SCARB2-Fc, sequence (Q14108 whole entry): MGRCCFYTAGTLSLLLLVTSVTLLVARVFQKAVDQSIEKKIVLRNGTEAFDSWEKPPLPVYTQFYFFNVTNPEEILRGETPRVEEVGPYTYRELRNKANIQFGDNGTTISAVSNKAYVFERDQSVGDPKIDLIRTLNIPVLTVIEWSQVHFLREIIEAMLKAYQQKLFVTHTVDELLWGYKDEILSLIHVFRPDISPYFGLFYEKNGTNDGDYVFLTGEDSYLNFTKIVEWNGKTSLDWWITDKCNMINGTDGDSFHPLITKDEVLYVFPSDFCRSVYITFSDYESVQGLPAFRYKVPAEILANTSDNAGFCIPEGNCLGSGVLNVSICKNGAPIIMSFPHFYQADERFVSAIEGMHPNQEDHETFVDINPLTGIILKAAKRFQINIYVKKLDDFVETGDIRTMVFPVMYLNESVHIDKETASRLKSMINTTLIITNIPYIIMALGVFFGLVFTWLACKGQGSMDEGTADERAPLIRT

[5] = target: EV71/G082 wild-type virus (enterovirus 71 strain EV71/G082)
[6] = target: T1, EV71 mature virion (F-particle), inactivated (Enterovirus A71, strain of the …); experiment: BLI; Octet RED 96; biotin-labelled inactivated F-particles on streptavidin tips; D5 IgG or Fab at 40 to 0.0128 μg/ml; kinetics buffer (PBS, 0.1% BSA, 0.02% Tween-20), room temperature; called avidities; details: both partners purified
T1 construct: VP1 of enterovirus 71, cut product of the polyprotein; PDB 3VBS is the crystal structure fitted into the map and may be of another strain; numbers count on: the mature VP1 chain; VP2 of enterovirus 71, cut product of VP0 of the polyprotein; numbers count on: the mature VP2 chain; VP3 of enterovirus 71, cut product of the polyprotein; numbers count on: the mature VP3 chain; VP4 of enterovirus 71, …
T1 chain 1: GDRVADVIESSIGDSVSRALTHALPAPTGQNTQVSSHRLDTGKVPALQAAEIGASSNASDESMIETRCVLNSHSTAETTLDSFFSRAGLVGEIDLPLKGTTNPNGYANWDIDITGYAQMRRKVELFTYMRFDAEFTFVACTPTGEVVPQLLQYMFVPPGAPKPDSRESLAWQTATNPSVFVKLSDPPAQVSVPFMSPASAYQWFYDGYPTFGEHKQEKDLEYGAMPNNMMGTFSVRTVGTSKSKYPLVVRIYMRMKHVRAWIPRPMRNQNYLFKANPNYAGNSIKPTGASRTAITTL
T1 chain 2: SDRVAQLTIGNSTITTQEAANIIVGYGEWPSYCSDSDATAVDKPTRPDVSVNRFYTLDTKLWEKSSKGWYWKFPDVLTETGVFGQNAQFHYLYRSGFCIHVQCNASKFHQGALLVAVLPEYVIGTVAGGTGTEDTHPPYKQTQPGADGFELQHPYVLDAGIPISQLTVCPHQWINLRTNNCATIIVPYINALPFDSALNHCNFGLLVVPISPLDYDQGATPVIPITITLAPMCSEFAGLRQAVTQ
T1 chain 3: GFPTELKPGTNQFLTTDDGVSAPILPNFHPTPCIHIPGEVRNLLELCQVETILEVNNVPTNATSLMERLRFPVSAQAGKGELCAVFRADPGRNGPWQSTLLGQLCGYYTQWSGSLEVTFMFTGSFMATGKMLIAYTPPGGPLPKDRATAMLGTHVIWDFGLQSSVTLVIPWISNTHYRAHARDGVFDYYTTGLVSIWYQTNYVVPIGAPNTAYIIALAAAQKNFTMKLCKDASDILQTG

[7] = target: EV71/G082 wild-type virus (enterovirus 71 strain EV71/G082); remark: listed apart in the source
[8] = target: EV71/G082 wild-type virus (enterovirus 71 strain EV71/G082); remark: listed apart in the source
[9] = target: T2, SP70 peptide (amino acid residues 208 to 222 of EV71 VP1) (Enterovirus 71; stretch identical among …); experiment: ELISA; plates coated with 20 ng/well E-particle, F-particle or VLP or 100 ng/well SP70 peptide; serially diluted scFv 2 h at 37°C; detected with HRP anti-His antibody; details: both partners purified
T2 construct: VP1 of enterovirus 71, residues 208 to 222, corresponding to the GH-loop; Q66478 is strain BrCr; numbers count on: the mature VP1 chain
T2 chain: YPTFGEHKQEKDLEY

[10] = 6.25 ng/well, parent: est. 0.83
[11] = 6.25 ng/well, parent: est. 0.52

D5 wild-type single-chain variable fragment (scFv-WT) D104A
response ([1]; 400 ng/well, parent: est. 2.1): 0.08 OD450nm
response ([2]; 400 ng/well, parent: est. 1.8): 0.05 OD450nm
response ([3]; 400 ng/well, parent: est. 3.1): 0.05 OD450nm
response ([4]; 400 ng/well, parent: est. 1.0): 0.09 OD450nm

D5 wild-type single-chain variable fragment (scFv-WT) F103A
response ([1]; 6.25 ng/well, parent: est. 1.8): 0.82 OD450nm
response ([1]; 25 ng/well, parent: est. 2.1): 1.6 OD450nm
response ([1]; 100 ng/well, parent: est. 2.2): 2.2 OD450nm
response ([1]; 400 ng/well, parent: est. 2.1): 2.2 OD450nm
response ([2]; 6.25 ng/well, parent: est. 1.3): 0.48 OD450nm
response ([2]; 25 ng/well, parent: est. 1.6): 1.1 OD450nm
response ([2]; 100 ng/well, parent: est. 1.8): 1.6 OD450nm
response ([2]; 400 ng/well, parent: est. 1.8): 1.7 OD450nm
response [3, 10]: 0.3 OD450nm
response ([3]; 25 ng/well, parent: est. 2.0): 0.95 OD450nm
response ([3]; 100 ng/well, parent: est. 3.0): 2.2 OD450nm
response ([3]; 400 ng/well, parent: est. 3.1): 2.7 OD450nm
response [4, 11]: 0.18 OD450nm
response ([4]; 25 ng/well, parent: est. 0.76): 0.42 OD450nm
response ([4]; 100 ng/well, parent: est. 0.88): 0.7 OD450nm
response ([4]; 400 ng/well, parent: est. 1.0): 0.86 OD450nm

D5 wild-type single-chain variable fragment (scFv-WT) F105A
response ([1]; 400 ng/well, parent: est. 2.1): 0.43 OD450nm
response ([2]; 400 ng/well, parent: est. 1.8): 0.2 OD450nm
response ([3]; 400 ng/well, parent: est. 3.1): 0.05 OD450nm
response ([4]; 400 ng/well, parent: est. 1.0): 0.12 OD450nm

D5 wild-type single-chain variable fragment (scFv-WT) N100A
response ([1]; 6.25 ng/well, parent: est. 1.8): 1.7 OD450nm
response ([1]; 25 ng/well, parent: est. 2.1): 2.1 OD450nm
response ([1]; 100 ng/well, parent: est. 2.2): 2.4 OD450nm
response ([1]; 400 ng/well, parent: est. 2.1): 2.2 OD450nm
response ([2]; 6.25 ng/well, parent: est. 1.3): 1.1 OD450nm
response ([2]; 25 ng/well, parent: est. 1.6): 1.4 OD450nm
response ([2]; 100 ng/well, parent: est. 1.8): 1.8 OD450nm
response ([2]; 400 ng/well, parent: est. 1.8): 1.8 OD450nm
response [3, 10]: 0.43 OD450nm
response ([3]; 25 ng/well, parent: est. 2.0): 1.3 OD450nm
response ([3]; 100 ng/well, parent: est. 3.0): 2.7 OD450nm
response ([3]; 400 ng/well, parent: est. 3.1): 3 OD450nm
response [4, 11]: 0.43 OD450nm
response ([4]; 25 ng/well, parent: est. 0.76): 0.67 OD450nm
response ([4]; 100 ng/well, parent: est. 0.88): 0.9 OD450nm
response ([4]; 400 ng/well, parent: est. 1.0): 1 OD450nm

D5 wild-type single-chain variable fragment (scFv-WT) W102A
response ([1]; 400 ng/well, parent: est. 2.1): 0.3 OD450nm
response ([2]; 400 ng/well, parent: est. 1.8): 0.19 OD450nm
response ([3]; 400 ng/well, parent: est. 3.1): 0.05 OD450nm
response ([4]; 400 ng/well, parent: est. 1.0): 0.1 OD450nm

D5 wild-type single-chain variable fragment (scFv-WT) Y101A
response ([1]; 400 ng/well, parent: est. 2.1): 0.3 OD450nm
response ([3]; 400 ng/well, parent: est. 3.1): 0.05 OD450nm
response ([4]; 400 ng/well, parent: est. 1.0): 0.15 OD450nm

EV71/G082 wild-type virus K218E
percent of parent (SCARB2-Fc): 65%

EV71/G082 wild-type virus K218T
percent of parent (SCARB2-Fc): 84%

B1: D5 intact IgG (antibody, V domains shown)
VH: EVQLQQSGAELVKPGASVKLSCTASGFNIKDTYIHWVKQRPEQGLEWIGKIDPANGNTKYDPKFQDKATITADTSSNTAYLQLSSLTSEDTAVYYCANSNYWFDFDYWGQGTTLTVSS
VL: DVLMTQTPLSLPVSLGDQASISCRSSQSIVHSNGNTYLEWYLQKPGQSPKLLIYKVSNRFSGVPDRFSGSGSGTDFTLKISRVEADDVGVYYCYQGSHVPYTFGGGTKLEIK
notes: variable region of the D5 heavy chain (VH, 1-118 aa); constant region of the mouse IgG heavy chain; variable region of the D5 light chain (VL, 1-113 aa); constant region of the mouse light chain; also called MAb D5; mAb D5; source: D5 hybridoma (mouse)
IC50 of neutralization of EV71 G082 (100 TCID50) on RD cells, standard neutralization assay, MTT [5]: 0.00223 µM
Kd [6]: 0.006 µM
IC50 of neutralization of EV71 G082 on RD cells, post-attachment neutralization assay [7]: 0.0101 µM
IC50 of neutralization (50% inhibition of cell death, MTT assay), EV71/G082 [8]: 0.183 mg/L
Neutralization concentration (lowest antibody concentration that fully prevents CPE), EV71/G082 [8]: 0.313 µg/mL

B2: D5 wild-type single-chain variable fragment (scFv-WT) (scFv, V domains shown)
VH: EVQLQQSGAELVKPGASVKLSCTASGFNIKDTYIHWVKQRPEQGLEWIGKIDPANGNTKYDPKFQDKATITADTSSNTAYLQLSSLTSEDTAVYYCANSNYWFDFDYWGQGTTLTVSS
VL: DVLMTQTPLSLPVSLGDQASISCRSSQSIVHSNGNTYLEWYLQKPGQSPKLLIYKVSNRFSGVPDRFSGSGSGTDFTLKISRVEADDVGVYYCYQGSHVPYTFGGGTKLEIK
notes: variable region of the D5 heavy chain (VH, 1-118 aa); 11-amino acid residue (GGGGS)2G linker; variable region of the D5 light chain (VL, 1-113 aa); Cloned in pET28b; also called wild-type scFv; VH-(GGGGS)2G-VL; source: E. coli BL21, purified from the soluble fraction (Ni-NTA)
binding result [9]: binds

B3: D5 Fab (Fab, V domains shown)
VH: EVQLQQSGAELVKPGASVKLSCTASGFNIKDTYIHWVKQRPEQGLEWIGKIDPANGNTKYDPKFQDKATITADTSSNTAYLQLSSLTSEDTAVYYCANSNYWFDFDYWGQGTTLTVSS
VL: DVLMTQTPLSLPVSLGDQASISCRSSQSIVHSNGNTYLEWYLQKPGQSPKLLIYKVSNRFSGVPDRFSGSGSGTDFTLKISRVEADDVGVYYCYQGSHVPYTFGGGTKLEIK
notes: variable region of the D5 heavy chain (VH, 1-118 aa), as the heavy chain of m1; constant part of the Fab heavy chain left by papain; variable region of the D5 light chain (VL, 1-113 aa), as the light chain of m1; constant region of the mouse light chain; also called Fab of D5; D5 Fab fragment; source: papain digestion of D5 IgG, purified (Hitrap Protein G, Sephacryl S-100)
IC50 of neutralization of EV71 G082 (100 TCID50) on RD cells, standard neutralization assay, MTT [5]: 0.0374 µM
Kd [6]: 0.015 µM
IC50 of neutralization of EV71 G082 on RD cells, post-attachment neutralization assay [7]: 0.191 µM

B4: D5 scFv-N100A (scFv, V domains shown)
VH: EVQLQQSGAELVKPGASVKLSCTASGFNIKDTYIHWVKQRPEQGLEWIGKIDPANGNTKYDPKFQDKATITADTSSNTAYLQLSSLTSEDTAVYYCANSAYWFDFDYWGQGTTLTVSS
VL: DVLMTQTPLSLPVSLGDQASISCRSSQSIVHSNGNTYLEWYLQKPGQSPKLLIYKVSNRFSGVPDRFSGSGSGTDFTLKISRVEADDVGVYYCYQGSHVPYTFGGGTKLEIK
notes: variable region of the D5 heavy chain (VH, 1-118 aa), as the VH of m3 with the stated change; 11-amino acid residue (GGGGS)2G linker; variable region of the D5 light chain (VL, 1-113 aa), as the VL of m3; Point mutant of m3 in the heavy chain CDR3; source: E. coli BL21, purified from the soluble fraction (Ni-NTA)
binding result [9]: binds

B5: D5 scFv-F103A (scFv, V domains shown)
VH: EVQLQQSGAELVKPGASVKLSCTASGFNIKDTYIHWVKQRPEQGLEWIGKIDPANGNTKYDPKFQDKATITADTSSNTAYLQLSSLTSEDTAVYYCANSNYWADFDYWGQGTTLTVSS
VL: DVLMTQTPLSLPVSLGDQASISCRSSQSIVHSNGNTYLEWYLQKPGQSPKLLIYKVSNRFSGVPDRFSGSGSGTDFTLKISRVEADDVGVYYCYQGSHVPYTFGGGTKLEIK
notes: as for B4
binding result [9]: binds
